Data: the RNAGym collection of RNA variant scans (doi:10.7554/elife.80360)

B1: HDV Ribozyme (parent)
chain: GGCCGGCAUGGUCCCAGCCUCCUCGCUGGCGCCGGCUGGGCAACAUUCCGAGGGGACCGUCCCCUCGGUAAUGGCGAAUGGGACCCA

Variants of: B1
Assay: self-cleavage, relative activity (ratio to wild type); higher = more cleavage; co-transcriptional

| Variant | self-cleavage |
| --- | --- |
| G31A G55A | 0.376 |
| C30A G68C | 0.308 |
| C30U A56U | 0.782 |
| C30U U79C | 0.148 |
| C30G U79G | 0.128 |
| G31A C63A | 0.379 |
| G31A C63G | 0.365 |
| G31U G67U | 0.297 |
| C30U G80C | 0.208 |
| C30U G80U | 0.116 |
| C30U G80A | 0.227 |
| C30U C44A | 0.117 |
| C30U C44G | 0.135 |
| C30U C44U | 0.289 |
| C32A G54U | 0.102 |
| C32G G34U | 0.0415 |
| C32G G34A | 0.0875 |
| C30A C66G | 0.675 |
| C32A C75A | 0.0723 |
| G31C C57U | 0.445 |
| C32A C36U | 0.0733 |

| Variant | self-cleavage |
| --- | --- |
| C32A C36G | 0.162 |
| C32A C36A | 0 |
| C30G A87C | 0.122 |
| G31C U72G | 0.128 |
| G31C C63G | 0.34 |
| G31C G80C | 0.0615 |
| G31C G50C | 0.511 |
| G31C A42G | 0.0755 |
| C30G U60A | 0.154 |
| G31U A45C | 0.119 |
| G31U A45G | 0.107 |
| C32A G38U | 0.181 |
| C32G U47A | 0.244 |
| G31A C57G | 0.529 |
| G31A C57A | 0.708 |
| G31C U37A | 0.115 |
| G31A G80U | 0.104 |
| C30G G76A | 0.0554 |
| C30G G76C | 0.117 |
| C32A A83C | 0.0665 |
| C30G G40A | 0.0923 |

| Variant | self-cleavage |
| --- | --- |
| G29U G81C | 0.086 |
| G31C G59U | 0.252 |
| C30A C75G | 0 |
| C30A C75A | 0.166 |
| C30G C62G | 0 |
| G31C A77U | 0.0489 |
| C32A C63U | 0.332 |
| G31U A70G | 0.48 |
| G31C U79A | 0.17 |
| G31A G52U | 0.531 |
| G31A G52C | 0.619 |
| C32A G82C | 0.0396 |
| G31U C66G | 0.266 |
| C30A U46C | 0.237 |
| C32G U60G | 0.196 |
| C30G C75A | 0.0583 |
| C30A G39U | 0.185 |
| C32G C33U | 0.115 |
| C30A A42G | 0 |
| C30A G55U | 0.458 |
| C30U C57A | 0.787 |

| Variant | self-cleavage |
| --- | --- |
| C30U C57U | 0.932 |
| C30A G80A | 0.105 |
| C30G C41U | 0.0702 |
| G31U U37G | 0.107 |
| C30U U60G | 0.443 |
| G31U G53C | 0.563 |
| C30G C48A | 0.0369 |
| C30G C61G | 0.157 |
| C30G C61A | 0.0252 |
| G31C G52U | 0.391 |
| G31C G52A | 0.234 |
| C32A C49A | 0.415 |
| C30A A78G | 0.309 |
| G29U G76A | 0.107 |
| C30G U47C | 0.0941 |
| C30G U47A | 0.0354 |
| C30A C36A | 0.0361 |
| G31A G39C | 0.182 |
| G31A U79C | 0.11 |
| G31A U79G | 0.266 |
